These results are taken from PMC4753445.

Where only a bound is given, the exact number is not on record here.

For the assay, the target named is AKT1 substrate 1 (AKT1S1), Flag-tagged (UniProt Q96B36). Nature of the assay: co-IP; 14-3-3 co-expressed with AKT1S1 (or 2SE) in HEK293T cells, with or without overexpressed PKM2 or PKM2 K270M; 14-3-3 co-immunoprecipitated with AKT1S1 detected by blot.

Sequence of 14-3-3 (P63104 whole entry): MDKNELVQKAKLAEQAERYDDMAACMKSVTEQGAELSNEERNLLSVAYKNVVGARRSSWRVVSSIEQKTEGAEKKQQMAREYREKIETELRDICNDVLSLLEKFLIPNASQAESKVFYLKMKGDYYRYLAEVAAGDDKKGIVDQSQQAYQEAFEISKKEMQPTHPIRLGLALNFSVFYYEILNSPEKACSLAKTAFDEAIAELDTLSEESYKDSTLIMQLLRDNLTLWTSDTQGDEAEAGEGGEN

On to “14-3-3 (from UniProt P63104 1-245) (natural protein)”, for which the fold increase of the co-precipitate with PKM2 overexpressed against without PKM2 is greater than 3 fold.
